Biological target: Aplysia californica acetylcholine binding protein (Ac-AChBP) (Aplysia californica)
Test: crystal structure

**Q.** How did the stoichiometry N (RgIA per Ac-AChBP pentamer) turn out when α-conotoxin RgIA (peptide) was run?
**A.** 5
